Reference: the DeepSol protein solubility set

Experiment: soluble on expression in E. coli; label from the status in PepcDB or PDB records
For “MSLRNPIRIFIVDDHEIVRQGLKVIINQEQDFELVGESNGQKGLLKEIAEAHPDVLLLDIRISGSDGFDIASQLNEKFPSIKILIISGYESELYLVEALDHKVSGFIPKGSSRDYVCSAIRMVALGGTVWHGELLYRVIRGLSRLGNEPNDTKVQIGKSHLKPRELKVLSLLAKGKLNKEICFELQISMDTVKKDIHQLKSKYGVFNRTQLATIATEMQLKEGHHHHHH”, the “soluble on expression in E. coli” value was “not soluble”. With “MSLRPGIKALAEATGYSIATVSKALNGSPMVAPATKALIHRAAADIGYRANARGMALRTGRTCQAAVLMPVTAARDYEWDGVEYTQILSGISQALEGSDYRMSVHVVRNVEDGCEVARRIIDEGLADGLIFSGIRADDPRIDLLDESRFPFVSLGRCRKPLDYAHVDIDNEWAAHAATARLIAGGHRRIALVNPLRHLSYAEDRVDGFLRAFREANLSPSDDLIAEGDLSTHFGRESALGLLDAARPPTAFVCSNESTTLGVLSGLGSRGRRIGVDVDVVAYDDINVSAYFTPPITTFYQPIEVLGRTLGEFLLRRMAGEDARSLKQVFRPRLIERQPDSLGGREGHHHHHH” the “soluble on expression in E. coli” value was “soluble”. For “MSLRPTMTDIAKLTGVSQSTVSLVLNNATGAKFSETTRNKVLKAAHDLGYRLSLREPVSASADERNLIVYLADEISTSPHPVVNIDGARDAAYASGKMLAVYSTHGNADIEKQVLDTTLSNPHVFGVIYATVYTRKVTPPAALSQVPTVLLNCYTGEGGFSSVVPAEVAGGHLATDYLLQSGHRRIGYINGEPWQDASKDRLKGYRTALATADLPFAQEMVRDGDWSSGLGFELTLSLMRESNPPTAIFCANDLTAIGAIEALKQLGLRVPEDVSVLGYDDQEIARHTHPPLSTVVLPNYELGRWAVETLLQEEHNRAAGAPVRHRMVKLDGPLVERGSVRVITEAKEGHHHHHH”, the “soluble on expression in E. coli” value was “soluble”. In the case of “MSLRTASVIVDLPTRQTNQPFTYLIPDDLLDFNLLGHRVRVPFGKRNLMGYVVAVGQSERSDFQLKKIESIIDEKPVLNSEMLKLSEWLSNYVFSYRVQVIQTILPNAFKPKYLKGLKIVDQVPEKIKENIFLNNQEIEFLPKNYTSEQIKVINSLIRQGKIVQTTTIQKKNKGKKVKVLSNNLNDNDIATNLNKKSLSDSQKKLLIFLSGHRDGFFQVKELAEILDISKSTILTAEKKSWLKKSEVRMTRNPVKKIAVTKTNAVELNSDQKKVFNSVESAITKNENKTFLLEGITGSGKTEVYLQLIEKTIAQGKTALLLVPEIALTPQMIRLVKSRFLDSVALLHSGLSDGERLDQWEEIRDGKIKIVIGTRSAVFSPLTNIGLIIMDEEHETNYKQEGNPRYHARDIALWRAKYHQAVTLLGSATPSLESRARAQKGIFKLLTMNHRAVSGAKLPDVSIVDMREVWQKEHADNDFSPTLLKKIEERKENHEQTILLLNRRGFSSFVMCRNCGYVPRCPNCNLSLTLHMDSHSLKCHYCGYEEAIPKKCPVCGSPQIRYVGTGTEKIETKLNSLVNGIRVARLDQDTTKRKGSLEKILRDFGKGNYDVLLGTQMVAKGLDFPDVTLVGVINADIGLNLPDFRSGEKTFQLLTQVAGRSGRAGKTGEVIIQTFNPDNYAIKLAADQNYEGFYKTEMSIRHIADYSPYYYTIQVGIDGPDQFPASRAIDEVAEFIKPKLAKETIVLGPTPKAIAKLRNRYYFQIILKYKKDPNIESTLSELQTVFGEKLPKDIYLSIDRDPVSEGHHHHHH”, the “soluble on expression in E. coli” value is reported as “soluble”. For “MSLRTMLTQKFVVDSMLGKIARWLRIMGYDTLYSNDFEDWKILKIAETQKRIIITRDRGIYYRSLKRGLNCILLSPDSNIIQDLAFIALRSKIDLSVNINATRCPQCNSVLSKLSESMWLCPKCKKEYWKGRHWRTIEEIIIKANSELVKLETKNDSRGTGTDTGVKRRDRTVTNRNSEGHHHHHH”, the “soluble on expression in E. coli” value was “soluble”. With “MSLRVDTLIRGGVVLTMDGDFTRHDAGYVAVTGGRISHVGADADAAGLSAERVIDAEGGIILPGFVNTHCHAAMTLFRGLADDVDLDGFLRTVWRAEAEHIGPASVELGAELAIAEMALSGVTHFLDMYWYPEATIAAAQRVGMGLTSGPPMLNVEGVDGMGWAERMAYTEGFLERYSGVDGVQPMLLPHGCYTLDADKLAEIANLARAAGCGVHIHAAEAAWEMQLVRDAYGTTPVRALERAGLLEQPLLLAHAVHLDGEEIALLADAGAGVAHCPLSNAKLASGMAPIGEMRASGVTLSLGTDGPASGNDLDMFATMRLAALVHNLRSGTSDTLPARDLVAMATSGGAMALGLGARTGSLEVGKQADITVVATDAPHNVPSYCPYSTLVFSAGRSEVRHVLARGRALVADGRPTTPTEPVKAEVRRLAADIANRRDEGHHHHHH” the “soluble on expression in E. coli” value was “soluble”. For “MSLRVFVCGCVHGSWDIVVDEVNKLVENGTKLDLIIVAGDLEAFITESDLLSYKRPNGTQGFGSFHKIANGEKHLPCKMLVIGGNNESTDIIFQLPFGGWITPDVYFAGRASQIYFGDLLITCTSGVYNVKNYWKKVYEHFPVRKKECYSVNHTRAFSNFQVYGLTQLNIFVTHDWPSGIPKMFRDIIPKKSLVDSDDSNDFGMQDYRKILEKKQPKYWFAAHHHIKFECEPNPGTKFIAVPRVIQDNWYSLQTFDEKPGDFMISGEWINILKKTEEYMKDPSVLKDIDWDEEWTKINSLPSADLPIKVPVMEYNNDYKVQTAKFCETYGIYNPNEGHHHHHH”, the “soluble on expression in E. coli” value was “soluble”. With “MSLRVIDTHCDALYKLQAGKGKYTFQDAEELDVNFERLIEAKMLLQGFAIFLDEDIPVEHKWKKAVEQVNIFKQHVLHKGGIIHHVKKWCDLENLPEDKIGAMLTLEGIEPIGRDLDKLTQLLDGGVLSVGLTWNNANLAADGIMEERGAGLTRFGKDIIHLLNERKVFTDVSHLSVKAFWETLEQAEFVIASHSSAKAICAHPRNLDDEQIKAMIEHDAMIHVIFHPLFTTNDGVADIEDVIRHIDHICELGGMKNIGFGSDFDGIPDHVKGLEHAGKYQNFLETLGKHYTKEEVEGFASRNFLNHLPKEGHHHHHH” the “soluble on expression in E. coli” value was “soluble”. For “MSLRVLVMVNDFPNKDNSYTANIFVKEQVKALSEFVEEINVIVPIPRGIELYRKTSYRDYAIGENVHVHFVKYINPLFPIAYSKLRREWIWLEHRALTNFIKKKDIKFDIIHAHYTWPSGAVGVKLKEEYKVPLVITEHTSQTFNRYITTRDPLAREIWQKADIIVRVRKGDIDLFSRVGITPSKIRYIPNGFDGNKFYPIPQEIARRKLNLVEYEKIIINVANMYSRVKGHEYLLRAFSKVAENTSDAFLILVGSGKLLSHLKKLADNLYLGHRVLFAGSKPHDEIPLWMNAADLFVLPSLRESFGVVQIEAMACGVPVVATRNGGSEEIIISEDYGLLCEPANPKELAEKILIALEKEWDREKIRKYAEQFTWENIAKKTLEVYRGVLKEGHHHHHH”, the “soluble on expression in E. coli” value was “soluble”. In the case of “MSLSDARLVADLSDVFTDIGVEHAVSGAQIEEFVARMPEVGHSLVAVHRRLRAATEELEGYRSRATAETELPPARPMPFEEVRDFFYDRNNYIHDLDMAAERMFTESGMRTGGLDIQLAELMRDRFGISVVIDDNLPDTAKRRYHPDTKVLRVAHWLMPGQRAFQIATQLALVGQSDLISSIVATDDQLSTEARGVARIGLANYFAGAFLLPYREFHRAAEQLRYDIDLLGRRFGVGFETVCHRLSTLQRPRQRGIPFIFVRTDKAGNISKRQSATAFHFSRVGGSCPLWVVHDAFAQPERIVRQVAQMPDGRSYFWVAKTTAADGLGYLGPHKNFAVGLGCDLAHAHKLVYSTGVVLDDPSTEVPIGAGCKICNRTSCAQRAFPYLGGRVAVDENAGSSLPYSSTEQSVEGHHHHHH”, the “soluble on expression in E. coli” value is reported as “soluble”. In the case of “MSLSDVAKKVGVSPITISRALRNPEIVSEDLRQTILRTVDEMGYIPNLAARALAGRHNGTVGVITPALHQHGFAGLMLGIEDRLRATEFGVQYSNTLHHADGEAGQLKSFLMQKPAGVIIAGAESYHDLLPLIEKAACPIAHITDLSQEPERLVVGLDHHAAGAEPTRFLLSRGYQRIGFIGGGTDVRSRRRREGYEAAMREAGRFDPDLAIGADAAGTTGLGRELLTRLLARVPDIDAVFAQNDELALGVLIECGVRGIRVPENFGICGFNDLEFSAFTEPSLTTVHIPRYEVGYRVADMLLRAVRSEPPGEEKVDCGFSVIPRGSTREGHHHHHH”, the “soluble on expression in E. coli” value is reported as “soluble”. For “MSLSDWIDASFTTKQTDAAKSSSQTKPKSVNQVKLDVPLVNQMTTPRLYNGCEVTSLTMLMNYAHINVTKNELAAKITSVPLTYSDGEHGNPEYGFVGDITGNDPGLGVYHKPIYKLAKTETSQVKDLTGANFDTVIEQLEQGRPVWTITTASFAPVSTMQTWQTPQGSVKVTYDMHSVVIVGFNRTKKLIYINNPYGEKQQAVSWKNFEAAYNQMGKQAIVLTLPHEGHHHHHH”, the “soluble on expression in E. coli” value was “soluble”. In the case of “MSLSEALERLIDQGVGREPADIVLKGGRFFDLVTGELVASDIAISGERIVGTCGDYEGREEIDVTGRIVVPGFIDTHLHIESSLVTPHEFDRCVLPLGITTVVCDPHEIANVLGTEGIQYFLDSAMETVMDIRVQLSSCVPATHLETSGADLPVGRLTPFRHHPKVIGLAEFMNFPGVVNKDPVCLAKLDAFQDGHIDGHAPLLRGKELNGYLAAGIRTDHECTSAEEALEKIRKGMHILVREGSVSKDLQALMPILTERLSPYLALCTDDRNPLDIAEQGHLDNMIRTAISAGVEPLAIYRAASISAARAFGLRDRGLVAPGWRADLVIVDSLENCKAELVLSAGRRVTDALFAGRKPVEPVGLDSVKAREVKAADFGLPYNEGETSVLGVLPGKIITEHRRYRLPAEGNRTGVDLDRDIIKVAVIERHGVNGNHANGFVQGFGLKKGAIASTVGHDSHNICVVGVNDDDMALAVNRLGEIKGGFVVVHDGKVTGEIALPVAGLMSLEPYERVRDTLHHLRQAAFALGATLEEPFLQLAFLPLPVIPHLKISDRGLVDVDRFMLIGEGHHHHHH”, the “soluble on expression in E. coli” value is reported as “soluble”. For “MSLSEKMRRIVEAAGGIVWRWKAGSDIANDPAIASSKSAQEQLDSIEVCIVHRPKYDDWSWPKGKLEQNETHRHAAVREIGEETGSPVKLGPYLCEVEYPLSEEGKKTRHSHDCTADTKHTLYWMAQPISADDAEHLLDAFGPVHRADVGEINDIVWVSVREARKILSHSTDKDTLAVFVDRVQEGAATAQNLLIVRHAKAESRKSWKGTDANRPITPKGAAMAFALNRELACFNPTRLATSPWLRCQETLQVLSWQTERPMEHINTLTEDAFAEHPAVSWLAFREQITQTLNSRETTAICMHRPVIGGMYDHLRGLCARKQLAKQLIAKSPYMPTGTAMSLFIIDTPQGPSIIDIQKVSPIVYEGHHHHHH”, the “soluble on expression in E. coli” value was “soluble”. With “MSLSETLRLGLICAGRMGSFHGQTAALRIPGACLAAIADPTPGQAARLATELGVERFYTDPQQLLDDPDIDGVLIAAPARSHAELVISAARAGKGVFCEKPMAITLDEADRAIAAAADAQVTLQVGFNRRFAKSFRTAHLDVVAGRIGTPQLLRSLTRDPALNNPAASPQWVIFLETLIHDFDSLRYLNPGAEAVEVFVMADALIAPDYKSKGFLDTAVVTIRFDNGAIATAEANFQAVYGYDVRGEVFGSAGMLTMGSVNDSDLVRYLANGIQSDTQRLDTDLLRDAYVAELNHFADCLRTGAKPLASGEDARAALAIARACIESFQLGKAVRVEGARSEGHHHHHH” the “soluble on expression in E. coli” value was “not soluble”. For “MSLSIALIAPYESLATLCRSICQELDLDVSVHTGSMEDGVRIARNLMAEGVDFFISRGLTAQLIREQCPLPVAELEVSAFDIYLCLEPLLRSGKSIGVVGHSDILRKAKGASAALGFTIDFYATAHPGGMGHIMEAARRQGIAAIAGDAVAARTAERYGMEGVLVQNGADSVTNTLQYAVATYSYLTRQATMAGRLQTVLDRMDGGALLASPDGRMLHCNAAVRAMLEPDQGCTETSMDDLFPQLDWRAVPEGRAETVRELVTVGGSKLAVTVTGTMHDDAMDALICTFHDVRQIEQLEHSFRKSEGHHHHHH”, the “soluble on expression in E. coli” value was “soluble”.
